The supplement of paper PMC5998384

Experiments:
HeLa Kyoto [1] = assay: solubility in G1/S (NP-40 vs SDS abundance) (log2 ratio); higher = more soluble; settings: cell cycle stage: G1/S
HeLa Kyoto [2] = assay: solubility change mitosis vs G1/S (difference of NP-40 vs SDS log2 ratios) (log2 ratio difference); higher = more soluble in mitosis
HeLa Kyoto [3] = assay: thermal stability score vs G1/S (z-score of summed log2 fold changes over temperatures); higher = more thermally stable than in G1/S
HeLa Kyoto [4] = assay: melting temperature (median over replicates), in situ; higher = more thermally stable
[5] = cell cycle stage: early G1 (4.5 h after nocodazole release)
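Throughout, for melting temperature (median over replicates), in situ: HeLa Kyoto cells synchronized by double thymidine or nocodazole block, proteins quantified by TMT10plex mass spectrometry, three independent biological replicates.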
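Throughout, for solubility change mitosis vs G1/S (difference of NP-40 vs SDS log2 ratios): synchronized HeLa Kyoto cells (double thymidine block for G1/S, nocodazole release for mitosis), protein amounts in NP-40 versus SDS lysates quantified by mass spectrometry, three biological replicates.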
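Throughout, for solubility in G1/S (NP-40 vs SDS abundance): HeLa Kyoto cells arrested at G1/S by double thymidine block, proteins quantified by TMT10plex mass spectrometry in mild NP-40 versus SDS extracts, three biological replicates.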
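Throughout, for thermal stability score vs G1/S (z-score of summed log2 fold changes over temperatures): synchronized HeLa Kyoto cells, proteins quantified by TMT10plex mass spectrometry, three biological replicates, mitosis taken 0.5 h after nocodazole release, G1/S directly after double thymidine block.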

Sequence of ZNF787 (chain, as listed by the source): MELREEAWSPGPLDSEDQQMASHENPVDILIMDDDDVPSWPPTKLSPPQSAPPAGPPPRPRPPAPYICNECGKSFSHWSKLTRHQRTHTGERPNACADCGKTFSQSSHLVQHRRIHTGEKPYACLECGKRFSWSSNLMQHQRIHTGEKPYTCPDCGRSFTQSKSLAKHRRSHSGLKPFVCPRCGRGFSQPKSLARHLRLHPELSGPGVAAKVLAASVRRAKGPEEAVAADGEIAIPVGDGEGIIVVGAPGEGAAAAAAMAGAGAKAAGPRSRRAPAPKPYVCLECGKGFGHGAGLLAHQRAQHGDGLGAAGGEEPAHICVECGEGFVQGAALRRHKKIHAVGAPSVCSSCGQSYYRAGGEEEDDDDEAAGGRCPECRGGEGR
Sequence of SLC27A4 (chain, as listed by the source): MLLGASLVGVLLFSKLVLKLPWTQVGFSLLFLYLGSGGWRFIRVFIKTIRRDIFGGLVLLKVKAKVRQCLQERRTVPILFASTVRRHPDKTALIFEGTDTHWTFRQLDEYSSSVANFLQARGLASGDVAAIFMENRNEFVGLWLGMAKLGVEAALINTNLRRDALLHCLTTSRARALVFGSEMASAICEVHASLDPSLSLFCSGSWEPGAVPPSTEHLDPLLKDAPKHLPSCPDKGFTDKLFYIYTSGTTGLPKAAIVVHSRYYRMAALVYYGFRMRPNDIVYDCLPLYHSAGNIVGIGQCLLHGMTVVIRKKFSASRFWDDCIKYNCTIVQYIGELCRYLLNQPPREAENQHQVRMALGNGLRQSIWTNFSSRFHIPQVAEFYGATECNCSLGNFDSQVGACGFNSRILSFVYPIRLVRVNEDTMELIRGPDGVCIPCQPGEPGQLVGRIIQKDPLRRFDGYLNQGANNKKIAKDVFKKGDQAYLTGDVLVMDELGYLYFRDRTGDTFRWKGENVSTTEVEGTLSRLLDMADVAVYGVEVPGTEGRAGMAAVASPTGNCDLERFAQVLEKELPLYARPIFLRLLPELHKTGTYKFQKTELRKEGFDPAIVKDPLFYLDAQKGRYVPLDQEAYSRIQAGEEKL

Substance | solubility in G1/S (log2) (HeLa Kyoto [1]) | solubility change mitosis (log2) (HeLa Kyoto [2]) | thermal stability score (HeLa Kyoto [3]; [5]) | thermal stability score (HeLa Kyoto [3]; cell cycle stage: mitosis) | melting temperature (HeLa Kyoto [4]; cell cycle stage: G1/S) | melting temperature (HeLa Kyoto [4]; cell cycle stage: mitosis)
MGSLFRSETMCLAQLFLQSGTAYECLSALGEKGLVQFRDLNQNVSSFQRKFVGEVKRCEELERILVYLVQEINRADIPLPEGEASPPAPPLKQVLEMQEQLQKLEVELREVTKNKEKLRKNLLELIEYTHMLRVTKTFVKRNVEFEPTYEEFPSLESDSLLDYSCMQRLGAKLGFVSGLINQGKVEAFEKMLWRVCKGYTIVSYAELDESLEDPETGEVIKWYVFLISFWGEQIGHKVKKICDCYHCHVYPYPNTAEERREIQEGLNTRIQDLYTVLHKTEDYLRQVLCKAAESVYSRVIQVKKMKAIYHMLNMCSFDVTNKCLIAEVWCPEADLQDLRRALEEGSRESGATIPSFMNIIPTKETPPTRIRTNKFTEGFQNIVDAYGVGSYREVNPALFTIITFPFLFAVMFGDFGHGFVMFLFALLLVLNENHPRLNQSQEIMRMFFNGRYILLLMGLFSVYTGLIYNDCFSKSVNLFGSGWNVSAMYSSSHPPAEHKKMVLWNDSVVRHNSILQLDPSIPGVFRGPYPLGIDPIWNLATNRLTFLNSFKMKMSVILGIIHMTFGVILGIFNHLHFRKKFNIYLVSIPELLFMLCIFGYLIFMIFYKWLVFSAETSRVAPSILIEFINMFLFPASKTSGLYTGQEYVQRVLLVVTALSVPVLFLGKPLFLLWLHNGRSCFGVNRSGYTLIRKDSEEEVSLLGSQDIEEGNHQVEDGCREMACEEFNFGEILMTQVIHSIEYCLGCISNTASYLRLWALSLAHAQLSDVLWAMLMRVGLRVDTTYGVLLLLPVIALFAVLTIFILLIMEGLSAFLHAIRLHWVEFQNKFYVGAGTKFVPFSFSLLSSKFNNDDSVA [ATP6V0A2] | -0.303 | -0.0408 | -2.85 | -3.91 | 55.8 °C | 56.5 °C
HSP90AB1 | -0.0892 | -0.125 | 0.311 | 0.779 | 51.3 °C | 51.1 °C
MAGDSEQTLQNHQQPNGGEPFLIGVSGGTASGKSSVCAKIVQLLGQNEVDYRQKQVVILSQDSFYRVLTSEQKAKALKGQFNFDHPDAFDNELILKTLKEITEGKTVQIPVYDFVSHSRKEETVTVYPADVVLFEGILAFYSQEVRDLFQMKLFVDTDADTRLSRRVLRDISERGRDLEQILSQYITFVKPAFEEFCLPTKKYADVIIPRGADNLVAINLIVQHIQDILNGGPSKRQTNGCLNGYTPSRKRQASESSSRPH [UCK2] | 0.28 | 0.265 | 0.367 | -1.36 | 52.2 °C | 52.9 °C
MCAARLAAAAAAAQSVYAFSARPLAGGEPVSLGSLRGKVLLIENVASLUGTTVRDYTQMNELQRRLGPRGLVVLGFPCNQFGHQENAKNEEILNSLKYVRPGGGFEPNFMLFEKCEVNGAGAHPLFAFLREALPAPSDDATALMTDPKLITWSPVCRNDVAWNFEKFLVGPDGVPLRRYSRRFQTIDIEPDIEALLSQGPSCA [GPX1] | 0.559 | -0.15 | 1.13 | -0.307 | 56.8 °C | 56.6 °C
MELRVGNRYRLGRKIGSGSFGDIYLGTDIAAGEEVAIKLECVKTKHPQLHIESKIYKMMQGGVGIPTIRWCGAEGDYNVMVMELLGPSLEDLFNFCSRKFSLKTVLLLADQMISRIEYIHSKNFIHRDVKPDNFLMGLGKKGNLVYIIDFGLAKKYRDARTHQHIPYRENKNLTGTARYASINTHLGIEQSRRDDLESLGYVLMYFNLGSLPWQGLKAATKRQKYERISEKKMSTPIEVLCKGYPSEFATYLNFCRSLRFDDKPDYSYLRQLFRNLFHRQGFSYDYVFDWNMLKFGASRAADDAERERRDREERLRHSRNPATRGLPSTASGRLRGTQEVAPPTPLTPTSHTANTSPRPVSGMERERKVSMRLHRGAPVNISSSDLTGRQDTSRMSTSQIPGRVASSGLQSVVHR [CSNK1D] | -0.067 | -0.0573 | -0.73 | -0.371 | 50.1 °C | 50.9 °C
ZNF787 | -0.0171 | 0.398 | -0.71 | -1.22 | 51.9 °C | 54.5 °C
MAFRGWRPPPPPLLLLLLWVTGQAAPVAGLGSDAELQIERRFVPDECPRTVRSGDFVRYHYVGTFPDGQKFDSSYDRDSTFNVFVGKGQLITGMDQALVGMCVNERRFVKIPPKLAYGNEGVSGVIPPNSVLHFDVLLMDIWNSEDQVQIHTYFKPPSCPRTIQVSDFVRYHYNGTFLDGTLFDSSHNRMKTYDTYVGIGWLIPGMDKGLLGMCVGEKRIITIPPFLAYGEDGDGKDIPGQASLVFDVALLDLHNPKDSISIENKVVPENCERISQSGDFLRYHYNGTLLDGTLFDSSYSRNRTFDTYIGQGYVIPGMDEGLLGVCIGEKRRIVVPPHLGYGEEGRGNIPGSAVLVFDIHVIDFHNPSDSISITSHYKPPDCSVLSKKGDYLKYHYNASLLDGTLLDSTWNLGKTYNIVLGSGQVVLGMDMGLREMCVGEKRTVIIPPHLGYGEAGVDGEVPGSAVLVFDIELLELVAGLPEGYMFIWNGEVSPNLFEEIDKDGNGEVLLEEFSEYIHAQVASGKGKLAPGFDAELIVKNMFTNQDRNGDGKVTAEEFKLKDQEAKHDEL [FKBP9] | 0.21 | -0.0483 | 4.29 | 4.83 | 53.7 °C | 54.5 °C
SLC27A4 | -0.211 | -0.138 | 0.342 | 0.581 | 50.3 °C | 50.9 °C
MASVSALTEELDSITSELHAVEIQIQELTERQQELIQKKKVLTKKIKQCLEDSDAGASNEYDSSPAAWNKEDFPWSGKVKDILQNVFKLEKFRPLQLETINVTMAGKEVFLVMPTGGGKSLCYQLPALCSDGFTLVICPLISLMEDQLMVLKQLGISATMLNASSSKEHVKWVHAEMVNKNSELKLIYVTPEKIAKSKMFMSRLEKAYEARRFTRIAVDEVHCCSQWGHDFRPDYKALGILKRQFPNASLIGLTATATNHVLTDAQKILCIEKCFTFTASFNRPNLYYEVRQKPSNTEDFIEDIVKLINGRYKGQSGIIYCFSQKDSEQVTVSLQNLGIHAGAYHANLEPEDKTTVHRKWSANEIQVVVATVAFGMGIDKPDVRFVIHHSMSKSMENYYQESGRAGRDDMKADCILYYGFGDIFRISSMVVMENVGQQKLYEMVSYCQNISKCRRVLMAQHFDEVWNSEACNKMCDNCCKDSAFERKNITEYCRDLIKILKQAEELNEKLTPLKLIDSWMGKGAAKLRVAGVVAPTLPREDLEKIIAHFLIQQYLKEDYSFTAYATISYLKIGPKANLLNNEAHAITMQVTKSTQNSFRAESSQTCHSEQGDKKMEEKNSGNFQKKAANMLQQSGSKNTGAKKRKIDDA [RECQL] | 0.0561 | -0.174 | -1.7 | -4.39 | 54 °C | 53.4 °C
TOP2A | -2.15 | -0.207 | -0.453 | 3.49 | 51 °C | 52.8 °C
DNAJC13 | -0.463 | -0.026 | -0.329 | -1.08 | 50.8 °C | 50.3 °C
MAQLGAVVAVASSFFCASLFSAVHKIEEGHIGVYYRGGALLTSTSGPGFHLMLPFITSYKSVQTTLQTDEVKNVPCGTSGGVMIYFDRIEVVNFLVPNAVYDIVKNYTADYDKALIFNKIHHELNQFCSVHTLQEVYIELFDQIDENLKLALQQDLTSMAPGLVIQAVRVTKPNIPEAIRRNYELMESEKTKLLIAAQKQKVVEKEAETERKKALIEAEKVAQVAEITYGQKVMEKETEKKISEIEDAAFLAREKAKADAECYTAMKIAEANKLKLTPEYLQLMKYKAIASNSKIYFGKDIPNMFMDSAGSVSKQFEGLADKLSFGLEDEPLETATKEN [ERLIN2] | 0.0653 | -0.0221 | 2.26 | 1.92 | 52.7 °C | 53.2 °C
MICAL3 | -0.213 | -0.0995 | -0.909 | -0.953 | 51.4 °C | 50.5 °C
MQDDSIEASTSISQLLRESYLAETRHRGNNERSRAEPSSNPCHFGSPSGAAEGGGGQDDLPDLSAFLSQEELDESVNLARLAINYDPLEKADETQARKRLSPDQMKHSPNLSFEPNFCQDNPRSPTSSKESPQEAKRPQYCSETQSKKVFLNKAADFIEELSSLFKSHSSKRIRPRACKNHKSKLESQNKVMQENSSSFSDLSERRERSSVPIPIPADTRDNEVNHALEQQEAKRREAEQAASEAAGGDTTPGSSPSSLYYEEPLGQPPRFTQKLRSREVPEGTRVQLDCIVVGIPPPQVRWYCEGKELENSPDIHIVQAGNLHSLTIAEAFEEDTGRYSCFASNIYGTDSTSAEIYIEGVSSSDSEGDPNKEEMNRIQKPNEVSSPPTTSAVIPPAVPQAQHLVAQPRVATIQQCQSPTNYLQGLDGKPIIAAPVFTKMLQNLSASEGQLVVFECRVKGAPSPKVEWYREGTLIEDSPDFRILQKKPRSMAEPEEICTLVIAEVFAEDSGCFTCTASNKYGTVSSIAQLHVRGNEDLSNNGSLHSANSTTNLAAIEPQPSPPHSEPPSVEQPPKPKLEGVLVNHNEPRSSSRIGLRVHFNLPEDDKGSEASSEAGVVTTRQTRPDSFQERFNGQATKTPEPSSPVKEPPPVLAKPKLDSTQLQQLHNQVLLEQHQLQNPPPSSPKEFPFSMTVLNSNAPPAVTTSSKQVKAPSSQTFSLARPKYFFPSTNTTAATVAPSSSPVFTLSSTPQTIQRTVSKESLLVSHPSVQTKSPGGLSIQNEPLPPGPTEPTPPPFTFSIPSGNQFQPRCVSPIPVSPTSRIQNPVAFLSSVLPSLPAIPPTNAMGLPRSAPSMPSQGLAKKNTKSPQPVNDDNIRETKNAVIRDLGKKITFSDVRPNQQEYKISSFEQRLMNEIEFRLERTPVDESDDEIQHDEIPTGKCIAPIFDKRLKHFRVTEGSPVTFTCKIVGIPVPKVYWFKDGKQISKRNEHCKMRREGDGTCSLHIESTTSDDDGNYTIMAANPQGRISCSGHLMVQSLPIRSRLTSAGQSHRGRSRVQERDKEPLQERFFRPHFLQAPGDMVAHEGRLCRLDCKVSGLPPPELTWLLNGQPVLPDASHKMLVRETGVHSLLIDPLTQRDAGTYKCIATNKTGQNSFSLELSVVAKEVKKAPVILEKLQNCGVPEGHPVRLECRVIGMPPPVFYWKKDNETIPCTRERISMHQDTTGYACLLIQPAKKSDAGWYTLSAKNEAGIVSCTARLDIYAQWHHQIPPPMSVRPSGSRYGSLTSKGLDIFSAFSSMESTMVYSCSSRSVVESDEL [MYPN] | 0.0329 | -0.108 | -0.0918 | 3.44 | 47.6 °C | 48.9 °C
MNPEKDFAPLTPNIVRALNDKLYEKRKVAALEIEKLVREFVAQNNTVQIKHVIQTLSQEFALSQHPHSRKGGLIGLAACSIALGKDSGLYLKELIEPVLTCFNDADSRLRYYACEALYNIVKVARGAVLPHFNVLFDGLSKLAADPDPNVKSGSELLDRLLKDIVTESNKFDLVSFIPLLRERIYSNNQYARQFIISWILVLESVPDINLLDYLPEILDGLFQILGDNGKEIRKMCEVVLGEFLKEIKKNPSSVKFAEMANILVIHCQTTDDLIQLTAMCWMREFIQLAGRVMLPYSSGILTAVLPCLAYDDRKKSIKEVANVCNQSLMKLVTPEDDELDELRPGQRQAEPTPDDALPKQEGTASGGPDGSCDSSFSSGISVFTAASTERAPVTLHLDGIVQVLNCHLSDTAIGMMTRIAVLKWLYHLYIKTPRKMFRHTDSLFPILLQTLSDESDEVILKDLEVLAEIASSPAGQTDDPGPLDGPDLQASHSELQVPTPGRAGLLNTSGTKGLECSPSTPTMNSYFYKFMINLLKRFSSERKLLEVRGPFIIRQLCLLLNAENIFHSMADILLREEDLKFASTMVHALNTILLTSTELFQLRNQLKDLKTLESQNLFCCLYRSWCHNPVTTVSLCFLTQNYRHAYDLIQKFGDLEVTVDFLAEVDKLVQLIECPIFTYLRLQLLDVKNNPYLIKALYGLLMLLPQSSAFQLLSHRLQCVPNPELLQTEDSLKAAPKSQKADSPSIDYAELLQHFEKVQNKHLEVRHQRSGRGDHLDRRVVL [VAC14] | 0.0329 | -0.133 | -1.83 | -1.68 | 53.3 °C | 53.9 °C
